Experimental data reported in patent US20150191517A1.
Where no end group is shown, it is not given here. [ ]: non-standard residue; d: D form.

B1: Protoxin II (D)-NHcyclohexyl (peptide)
peptide: YCQKWMWTCDSERKCCEGMVCRLWCKKKL[dW]-NHcyclohexyl
modifications: ends and bridges not checked
B2: Protoxin II-D-Trp (peptide)
peptide: YCQKWMWTCDSERKCCEGMVCRLWCKKKLWW
modifications: not fully specified; ends and bridges not checked

Key:
Assay in all cases: cell-based or functional assay
[1] = target: Nav1.2 (rBIIa) (rat (printed only as rBIIa)) (UniProt P04775)
[2] = target: Nav1.2 (rBIIa) (rat (printed only as rBIIa)), P04775
[3] = target: human Nav1.7 alpha-subunit (human), Q15858
[4] = target: human Nav1.7 alpha-subunit (human) (UniProt Q15858)
Sequence of human Nav1.7 alpha-subunit (human) (Q15858 whole entry): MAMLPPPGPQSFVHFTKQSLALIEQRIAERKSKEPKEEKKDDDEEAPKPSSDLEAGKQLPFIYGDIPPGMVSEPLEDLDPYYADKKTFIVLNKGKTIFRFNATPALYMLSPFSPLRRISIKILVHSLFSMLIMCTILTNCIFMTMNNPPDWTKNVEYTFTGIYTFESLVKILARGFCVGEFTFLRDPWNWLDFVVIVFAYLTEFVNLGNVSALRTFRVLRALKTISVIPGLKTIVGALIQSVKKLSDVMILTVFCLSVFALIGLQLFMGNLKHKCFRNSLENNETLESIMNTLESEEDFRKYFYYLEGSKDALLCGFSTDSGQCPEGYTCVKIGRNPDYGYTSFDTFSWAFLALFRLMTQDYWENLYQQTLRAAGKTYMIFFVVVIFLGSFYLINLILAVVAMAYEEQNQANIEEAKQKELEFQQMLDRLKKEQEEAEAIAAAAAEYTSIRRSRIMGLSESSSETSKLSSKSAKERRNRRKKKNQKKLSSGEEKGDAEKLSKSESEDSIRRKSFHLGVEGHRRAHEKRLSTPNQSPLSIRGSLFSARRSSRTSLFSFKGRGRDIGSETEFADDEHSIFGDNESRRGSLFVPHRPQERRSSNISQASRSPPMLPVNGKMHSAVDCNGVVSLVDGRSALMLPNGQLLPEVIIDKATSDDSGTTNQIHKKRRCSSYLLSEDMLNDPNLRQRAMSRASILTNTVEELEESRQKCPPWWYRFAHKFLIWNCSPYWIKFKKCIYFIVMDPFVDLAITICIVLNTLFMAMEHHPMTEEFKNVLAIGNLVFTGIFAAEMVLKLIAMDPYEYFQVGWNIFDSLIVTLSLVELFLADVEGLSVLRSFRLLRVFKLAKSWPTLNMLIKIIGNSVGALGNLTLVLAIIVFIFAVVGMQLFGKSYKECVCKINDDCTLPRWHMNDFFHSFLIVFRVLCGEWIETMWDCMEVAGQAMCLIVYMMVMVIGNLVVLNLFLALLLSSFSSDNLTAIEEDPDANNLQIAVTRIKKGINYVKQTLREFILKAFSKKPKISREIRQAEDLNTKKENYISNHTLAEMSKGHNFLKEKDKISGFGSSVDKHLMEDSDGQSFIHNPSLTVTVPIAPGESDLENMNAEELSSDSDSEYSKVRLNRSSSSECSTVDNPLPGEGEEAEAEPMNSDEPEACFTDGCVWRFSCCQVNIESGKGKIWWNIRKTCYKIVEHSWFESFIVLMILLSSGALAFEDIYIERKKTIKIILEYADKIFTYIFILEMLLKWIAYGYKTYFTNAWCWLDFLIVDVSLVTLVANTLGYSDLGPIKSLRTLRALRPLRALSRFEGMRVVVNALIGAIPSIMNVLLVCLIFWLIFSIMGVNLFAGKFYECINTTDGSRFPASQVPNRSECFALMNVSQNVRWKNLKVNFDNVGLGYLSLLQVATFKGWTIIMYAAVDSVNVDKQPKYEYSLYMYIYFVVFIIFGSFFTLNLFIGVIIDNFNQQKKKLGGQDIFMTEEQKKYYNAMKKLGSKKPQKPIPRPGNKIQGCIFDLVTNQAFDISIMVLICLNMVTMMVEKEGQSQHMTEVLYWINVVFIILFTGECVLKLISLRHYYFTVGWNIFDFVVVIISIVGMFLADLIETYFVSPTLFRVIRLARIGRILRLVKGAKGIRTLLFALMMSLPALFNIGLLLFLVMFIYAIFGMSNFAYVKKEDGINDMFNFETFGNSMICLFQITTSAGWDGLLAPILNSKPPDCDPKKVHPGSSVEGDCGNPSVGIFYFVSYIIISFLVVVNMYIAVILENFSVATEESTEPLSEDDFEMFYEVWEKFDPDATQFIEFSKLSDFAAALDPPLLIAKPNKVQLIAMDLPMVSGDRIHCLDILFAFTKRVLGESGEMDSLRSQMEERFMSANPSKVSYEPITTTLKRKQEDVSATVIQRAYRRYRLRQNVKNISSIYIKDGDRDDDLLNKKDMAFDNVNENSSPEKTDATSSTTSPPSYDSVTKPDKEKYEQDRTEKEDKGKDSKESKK

Sequence of Nav1.2 (rBIIa) (rat (printed only as rBIIa)) (P04775 whole entry): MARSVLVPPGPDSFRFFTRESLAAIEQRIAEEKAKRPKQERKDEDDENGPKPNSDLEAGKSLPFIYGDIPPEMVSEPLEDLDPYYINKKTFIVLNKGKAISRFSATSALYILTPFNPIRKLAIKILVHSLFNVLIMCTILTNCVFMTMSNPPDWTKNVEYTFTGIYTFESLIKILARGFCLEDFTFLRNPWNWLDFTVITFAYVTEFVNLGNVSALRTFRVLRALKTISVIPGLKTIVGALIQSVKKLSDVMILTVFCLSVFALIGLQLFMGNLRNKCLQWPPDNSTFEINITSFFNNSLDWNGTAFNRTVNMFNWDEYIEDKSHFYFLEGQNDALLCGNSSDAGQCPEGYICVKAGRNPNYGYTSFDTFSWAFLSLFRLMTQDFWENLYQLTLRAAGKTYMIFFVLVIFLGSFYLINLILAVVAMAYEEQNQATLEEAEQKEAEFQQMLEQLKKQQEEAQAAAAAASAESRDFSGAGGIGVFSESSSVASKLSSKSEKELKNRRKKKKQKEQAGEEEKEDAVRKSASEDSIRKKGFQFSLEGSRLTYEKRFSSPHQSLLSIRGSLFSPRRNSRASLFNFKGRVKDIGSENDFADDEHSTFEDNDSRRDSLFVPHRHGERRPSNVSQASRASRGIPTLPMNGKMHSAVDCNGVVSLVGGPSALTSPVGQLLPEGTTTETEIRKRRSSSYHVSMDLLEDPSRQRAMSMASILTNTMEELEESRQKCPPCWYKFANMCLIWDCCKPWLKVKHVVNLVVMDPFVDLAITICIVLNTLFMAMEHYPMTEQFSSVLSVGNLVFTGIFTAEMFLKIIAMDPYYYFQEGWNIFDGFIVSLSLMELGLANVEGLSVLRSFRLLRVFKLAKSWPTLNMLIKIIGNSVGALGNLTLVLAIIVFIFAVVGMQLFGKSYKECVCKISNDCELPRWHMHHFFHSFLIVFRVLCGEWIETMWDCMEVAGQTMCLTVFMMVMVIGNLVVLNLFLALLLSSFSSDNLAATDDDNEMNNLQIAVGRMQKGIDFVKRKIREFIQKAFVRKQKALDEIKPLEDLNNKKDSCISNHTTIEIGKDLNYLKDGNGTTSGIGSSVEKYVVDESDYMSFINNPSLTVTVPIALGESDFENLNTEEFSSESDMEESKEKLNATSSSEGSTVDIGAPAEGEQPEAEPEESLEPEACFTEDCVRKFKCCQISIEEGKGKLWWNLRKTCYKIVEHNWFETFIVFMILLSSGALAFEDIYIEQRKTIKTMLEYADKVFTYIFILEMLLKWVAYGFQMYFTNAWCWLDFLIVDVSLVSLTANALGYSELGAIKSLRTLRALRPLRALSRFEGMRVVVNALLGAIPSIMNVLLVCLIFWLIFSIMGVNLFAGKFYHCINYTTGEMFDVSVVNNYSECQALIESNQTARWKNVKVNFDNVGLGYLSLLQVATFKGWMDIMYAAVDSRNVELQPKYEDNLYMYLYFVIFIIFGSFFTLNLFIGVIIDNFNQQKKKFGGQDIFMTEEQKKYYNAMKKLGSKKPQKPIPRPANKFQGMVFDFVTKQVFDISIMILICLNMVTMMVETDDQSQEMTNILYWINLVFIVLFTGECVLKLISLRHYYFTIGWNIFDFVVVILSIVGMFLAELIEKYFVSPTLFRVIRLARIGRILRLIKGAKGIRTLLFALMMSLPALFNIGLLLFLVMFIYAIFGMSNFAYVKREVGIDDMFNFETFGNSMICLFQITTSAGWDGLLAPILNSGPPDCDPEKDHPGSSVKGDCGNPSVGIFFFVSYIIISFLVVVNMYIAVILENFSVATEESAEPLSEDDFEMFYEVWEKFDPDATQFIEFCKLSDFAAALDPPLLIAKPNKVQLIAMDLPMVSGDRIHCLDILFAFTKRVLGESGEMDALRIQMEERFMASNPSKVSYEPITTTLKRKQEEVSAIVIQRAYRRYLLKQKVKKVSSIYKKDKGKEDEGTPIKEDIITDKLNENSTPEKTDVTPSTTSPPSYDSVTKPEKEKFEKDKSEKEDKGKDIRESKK
Sequence of Nav1.2 (rBIIa) (rat (printed only as rBIIa)), P04775 (P04775 whole entry): as above
Sequence of human Nav1.7 alpha-subunit (human), Q15858 (Q15858 whole entry): as the sequence (Q15858 whole entry) above

Molecule	Nav1.2 IC50 (nM), EP (electrophysiology) sodium channel blocking activity [1]	Nav1.2 IC50 (nM), FLIPR sodium channel blocking activity [1]	Nav1.2 IC50 (nM), FLIPR sodium channel blocking activity [2]	Nav1.7 IC50 (nM), FLIPR sodium channel blocking activity [3]	Nav1.7 IC50 (nM), FLIPR sodium channel blocking activity [4]
Protoxin II (peptide)	100 nM	379 nM			
B1			336 nM	31 nM	
B2		102 nM			16.5 nM
